Reference: PMC10720262 (Cell Reports, 2023)

Molecular target: recombinant full-length PfCSP (Plasmodium falciparum circumsporozoite protein, strain NF54) (Plasmodium falciparum NF54, UniProt P19597)
Sequence (P19597 20-375): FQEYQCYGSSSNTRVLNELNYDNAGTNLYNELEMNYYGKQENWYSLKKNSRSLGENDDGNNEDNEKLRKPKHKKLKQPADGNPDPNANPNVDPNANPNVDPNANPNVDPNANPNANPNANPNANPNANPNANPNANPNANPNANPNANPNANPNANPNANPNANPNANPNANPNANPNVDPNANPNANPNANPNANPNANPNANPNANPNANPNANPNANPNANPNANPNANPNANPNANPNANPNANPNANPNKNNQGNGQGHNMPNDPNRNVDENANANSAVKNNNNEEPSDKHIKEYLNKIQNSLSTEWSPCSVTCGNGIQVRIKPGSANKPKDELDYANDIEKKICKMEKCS

| Binder | binding result |
| --- | --- |
| CL-464277 (antibody, V domains shown) VH: QVQLVASGGGVVQPGRSLRLSCAVSGFTFRNYGMHWVRQDPGRGLEWVAIIWYDGSYKFYADSVKGRFTISRDNSKNTLYLQMNSLRAEDTAVYYCARSYGSLTGDQTKYGMDVWGQGTTVSVSS VL: not shown | binds |
| CL-462788 (antibody, V domains shown) VH: QVQLVESGGGVVQPGRSLRLSCAASGFTFRNYGMHWVRQAPGKGLEWVAIIWYDGSYKFYADSVKGRFTISRDNSKNTLYLQMNSLRAEDTAMYYCARDDALELRSFDIWGQGTMVTVSS VL: DVVMTQSPLSLPVTLGQPASISCRSSQSLVYSDENTYLSWFQQRPGQSPRRLIYKISNRDSGVPDRFSGSGSGTDFTLKISRVEAEDVGVYYCMQGTHWPRTFGQGTEVEIK | binds |
| CL-509930 (antibody, V domains shown) VH: QVQLVESGGGVVQPGRSLRLSCAASGFTFSSYGMHWVRQAPGKGLEWVAIIWHDGSNKYYADSVKGRFTISRDNSKNTLYLQMNSLRAEDTAVYYCARDYSSFYFDYWGQGTLVTVSS VL: not shown | binds |
| CL-509880 (antibody, V domains shown) VH: QVQLVESGGGVVQPGRSLRLSCAASGFTFSNSGMHWVRQAPGKGLEWVAVIWYDGSNKYYADSVKGRFTVTRDNSKNTLYLQMNSLRAEDTAVYYCVRAYYGSGSYHFKYGMDVWGQGTTVTVSS VL: not shown | binds |
| CL-462911 (antibody, V domains shown) VH: QVHLVESGGGVVQPGRSLTLSCAASGFTFSSCGMHWVRQAPGKGLEWLAVIWYDGSNKYYADSVKGRFTISRDNSKNTLYLQMNSLRAEDTAVYYCARDGGYVRDYYYGMDVWGQGTTVTVSS VL: not shown | binds |
| CL-509370 (antibody, V domains shown) VH: QVQLVESGGGVVQPGRSLRLSCAASGFTFSSYGMHWVRQAPGKGLEWVAVIWYDGSNKFYADSVKGHFTISRDNSKNTLYLQMNSLRAEDTAVYYCARDGRDLRGTGPYFDPWGQGTLVTVSS VL: EIVMTQSPATLSVSPGERAILSCRASQSVSSNLAWYQQKPGQAPRLLIYGASIRATGIPARFRGSGSGTEFTLTISILQSEDFAVYYCQQYNNWITFGQGTRLEIK | binds |
| CL-509177 (antibody, V domains shown) VH: QVQLVESGGGVVQPGRSLRLSCAASGFSFSSYGMHWVRQTPGKGLEWVAIIWYDGSNKFYADSVKGRFIISRDNSKNTLYLQMNSLRAEDTAVYYCARDGGYSTSAGDFDYWGQGTLVTVSS VL: EIVLTQSPGTLSLSPGERATLSCRASQSVSSSYLAWYQQKPGQAPRLLIYGASSRATGIPDRFSGRGSGTDFTLTISRLEPEDFAVYYCQQYVSSFTFGPGTKVDIN | binds |
| CL-509940 (antibody, V domains shown) VH: QVQLVESGGGVVQPGRSLRLSCAASGFTFSTYGMHWVRQAPGKGLEWVAVIWYDGSIKFYADSVKGRFTISRDDSKNTLYLQMNSLRAEDTAVYYCARDGGYSDSGRFGWFDPWGQGNLVTVSS VL: EIVMTQSPVTLSVSPGERVTLSCRASQSVSSNLAWYQQKPGQAPRLLIYGASNRATGIPDRFSGSGSGTEFSLTVTSLQSEDFAVYYCQQYNQWRTFGQGTKVEIR | binds |
| CL-508731 (antibody, V domains shown) VH: QVQLVESGGGVVQPGRSLRLSCVASGFTFSNNGMHWVRQAPGKGLEWVAIIWHDGSNKFYAESVRGRFTISRDNSNNTLYLQMNSLRAEDTAVYYCARDRMFGSGSWNYFDPWGQGTLVTVSS VL: EIVLTQSPATLSLSPGERATLSCRASQSISTYLAWYQQKPGQAPRLLIYDASNRATGIPARFSGSGSGTDFTLTISSLEPEDFAVYYCQQRSYWWTFGQGTKVEIK | binds |
| CL-509993 (antibody, V domains shown) VH: QVQLVESGGGVVQPGRSLRLSCVASGFTFSNNGMHWVRQAPGKGLEWVAIIWYDGSNKYYADSVKGRFTISRDNSNNTLYLQMNSLRAEDTAVYYCARDRMFGSGTWNYFDPWGQGTLVTVSS VL: EIVLTQSPATLSLSPGERATLSCRASQSVTTYLAWYQQKPGQAPRLLIYDASNRATGIPARFSGSGSGTDFTLTISSLEPEDFAVYYCQQRSNWWTFGQGTKVEIK | binds |
| CL-464097 (antibody, V domains shown) VH: QVQLVESGGGAVQPGRSLRLSCAASGFTFSYNGMHWVRQAPGKGLEWVAIIWYDGSNKYYAESVKGRFTISRDNSKDTLYLQMNSLRAEDTAIYYCVRAWNYEDKKYSMDVWGQGTTVTVSS VL: DIQMTQSPSTLSASVGDRVTITCRASQSISSWLAWYQQKPGKAPKLLIYKASSLESGVPSRFSGSGSGTDFTLTISSLQPDDFATYYCQQYNYFWTFGQGTKVEIR | binds |
| CL-464181 (antibody, V domains shown) VH: QVQLVESGGGAVQAGTSLRLSCAASGFSFSYNGMHWVRQGPGKGLEWVAIIWYDGGNKFYADSVKGRFTISRDNSKKMLYLQMNRLRAEDTAVYYCARAWNFADNKYSMDVWGQGTTVTVSA VL: DIQMTQSPSTLSASVGDRVTITCRASQSISCWLAWYQQKPGKAPQLLIYKASSLESGVPSRFSGSGSGTEFTLTISSLQPDDFATYYCQQYYIYWTFGQGTKVDIK | binds |
| CL-508758 (antibody, V domains shown) VH: QVQLVESGGGVVQPGRSLRLSCAASGFTFSNYGMHWVRQTPGRDLEWVAIIWYDGSYKFYADSVKGRFSISRDNSKNTLNLEMKSLRVEDTAVYYCAKAYDTSSDDKYGMDVWGQGTTVTVTS VL: DIQMTQSPSTLSASVGDRVTITCRASQSISIWLAWYQQKPGKAPKLLIYRASDLESGVPSRFSGSGSGTGFTLTISSLQPDDFATYYCQQYNSYWTFGQGTKVEIK | binds |
| CL-509494 (antibody, V domains shown) VH: QVQLVESGGGVVQPGRSLRLSCAASGFTFSNFGMHWVRQSPGRGLEWVAIIWYDGSHKFYADSVKGRFTISRDNSKNTLYLQMNSLRAEDTAVYYCAKSEQRTNDHYYKYGMDVWGQGTTVTVST VL: DIQMTQSPSTLSASVGDRVTITCRASQSISSWLAWYQQKPGKAPTLLIYKASSLESGVPSRFSGSGSGTEFTLTISSLQPDDFATYYCQQYTNYWTFGQGTKVEIK | binds |
| CL-509293 (antibody, V domains shown) VH: QVQLVASGGGVVQPGRSLRLTCAASGFTFSNYGMHWVRQSPGRGLEWVAIIWYDGSNKFYADSVKGRFTISRDNSKNTLYLQMNSLRAEDTAVYYCAKAEQRTNDNYYKYGMDVWGQGTTVTVST VL: not shown | binds |
| CL-509326 (antibody, V domains shown) VH: QVYLVESGEGVVQPGRSLRLSCAASGFTFSNYGMHWVRQAPGKGLEWVAVIWYNGNNKFYADSVKGRFTISRDNSKNTLFLQMNSLRAEDTAVYFCARSGYSRSSYFDYWGQGTLVTVSS VL: QSVLTQPPSVSGAPGQRVTISCTGSSSNIGAVYDVHWYQQLPGTAPKLLIYGNTNRPSGVPDRFSGSQSGTSASLAITGLQAEDEADYYCQSYDSSLSGSVFGGGTKLTVL | binds |
| CL-509025 (antibody, V domains shown) VH: QVQLVESGGGVVQPGRSLRLSCVASGFTFSDYGMHWVRQAPGKGLEWVAVIWYDGTKEFFADSVKGRFTISRDNSKDTLYLQMNSLRAEDTGIYYCATYKWNSHLDYWGQGTLVTVSS VL: EIVLTQSPATLSLSPGERATLSCRASQTISSYLAWYQQKPGQAPRLLIYDASNRATGIPARFSGSGSGTDFTLTISSLEPEDFTVYYCQQRSNWPLTFGGGTKVGIK | binds |
